Laboratory results: US20240317865A1, “ANTIBODIES AGAINST INTEGRIN ALPHA 11 BETA 1” (MOMENTA PHARMACEUTICALS, INC., priority 2020, published 2024)

T1: α11β1 I Domain (Homo sapiens, UniProt Q9UKX5)
T1 sequence (Q9UKX5 164-345 limits assumed): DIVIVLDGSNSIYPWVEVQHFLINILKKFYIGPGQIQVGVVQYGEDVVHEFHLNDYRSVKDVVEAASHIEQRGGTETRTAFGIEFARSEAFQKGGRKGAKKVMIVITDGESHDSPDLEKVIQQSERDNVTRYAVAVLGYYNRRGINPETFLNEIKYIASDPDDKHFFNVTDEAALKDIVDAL

B1: 40G10H11: rat anti-α11β1 mAb; VH SEQ ID NO: 157, VL SEQ ID NO: 158 (antibody, V domains shown)
VH: MDIRLSLGFLVLFIKGDQCAVQLVESGGGLVQPGRSLKLSCAASRITFTDYYMAWVRQAPTKGLEWVATISSDGGDTFYRDSVKGRFTISRDNAKSTLYLQMVSLRSEDTATYYCSTDRGAQFGYWGQGTLVTVSS
VL: MAPVQLLGLLLIWLPAMRCDIQMTQSPSFLSASVGDRVSINCKASQNVHENLNWYQQKLGEAPKRLIYNTNNLQTGIPSRFSGSGSGADYTLTISSLQPEDFATYFCLQHNAFPYTFGPGTKLELK
B2: 1994_01_C07: fully human anti-α11β1 mAb from phage display; HCDR3 SEQ ID NO: 267, LCDR3 SEQ ID NO: 271 (antibody, V domains shown)
VH: QVQLVQSGAEVKKPGASVKVSCKASGYTFTSYGISWVRQAPGQGLEWMGWISAYNGNTNYAQKLQGRVTMTTDTSTSTAYMELRSLRSDDTAAYYCARVTGITGTTIDPWGQGTMVTVSS
VL: DIQMTQSPSSLSASVGDRVTITCRASQSISSYLNWYQQKPGKAPKLLIYDASSLESGVPSRFSGSGSGTEFTLTISSLQPDDFAVYYCQQYNNWPQTFGQGTKVEIK

Assays:
α1β1, α2β1 and/or α10β1 = experiment: Counter-screen against other collagen receptors (off target); type: binding, human
Procedure: Wistar rats were immunized with recombinant human α11β1 protein. An enzyme-linked immunosorbent assay (ELISA) was used to test an immune response against target human and mouse proteins. Subsequently, cell fusion (by electro fusion) was performed with animals that produced a good immune response. All fused cells were plated in a 96-well plate and supernatants were screened by ELISA against soluble human and mouse α11β1. Positive clones were counter-screened against human α1β1, α2β1 and α10β1. […] Purified antibodies were then generated from the selected clones and heavy chain and light chain variable domain sequences were obtained from each purified antibody.
10 mice from 5 different strains were immunized with an appropriate mixture of human α11β1, mouse α11β1 and tolerance breaking protein. Plasma titers were evaluated by ELISA against a mixture of human and mouse α11β1. Popliteal, inguinal, and iliac lymph nodes were collected. ELISA-positive anti-human/mouse α11β1 hybridomas were expanded and subjected to a secondary screen against human and mouse α11β1, control HIS protein, and a counter-screen was performed against human […], α2β1 and α10β1. Supernatant IgG concentration was sufficient for functional screening. […]

α11β1 I Domain [1] = molecular target: T1, α11β1 I Domain; experiment: ELISA binding to in-house generated α11β1 I domain; design: An in-house generated I domain of α11β1 was used; made in house; conditions: in words
Procedure: 0.25 μg/mL of target antigen (recombinant human or mouse α11β1) was plated in a 96-well plate over night at 4° C. Plates were washed (PBS with 0.1% Tween-20), blocked (PBS with 2% BSA and 0.05% Tween-20) for 1 hour at room temperature and incubated with a range of antibody concentrations for 1 hour at room temperature. Subsequently, plates were washed and incubated with biotinylated anti-rabbit/mouse/human IgG in a 1:1000 dilution buffer and incubated for 1 hour at room temperature. After washing the plates, Streptavidin HRP was added at 1:200 in dilution buffer and incubated for 1 hour at room temperature. Ultra TMB ELISA substrate solution was added and the plates incubated for 5 minutes on a plate shaker. The reaction was stopped by adding stop solution to each well and plates were read at 450 nm.
Data was also collected to determine whether antibodies of interest bind to the I domain of α11β1. An in-house generated I domain of α11β1 was used. […] Mouse antibodies 10-F23, 10-L15, 7-O8, 6-A12, 9-G05 and 9-E16 and rabbit antibodies 7-H12 and 2-D3 were also tested for binding against the in-house generated α11β1 I domain. FIGS. 3A and 3B show graphs illustrating binding data from exemplary mAbs.

[2] = system: CHO-K1 human α11-mediated rat tail type I collagen gel contraction; experiment: Collagen gel contraction assay; type: cell-based; conditions: compared to untreated condition
Procedure: 24-well plates were blocked with 2% BSA in PBS overnight at 37° C. The following day, the plates were washed 3 times with PBS before being used in the assay. Human CHO cell lines expressing α11 were harvested and resuspended at 1.25×10^6 in ExpiCHO Expression Medium (Gibco™ Cat #A2910002). The collagen gel solution was prepared by diluting 3 mg/mL stock collagen type I (Gibco™ Collagen I Rat Protein, Tail Cat #A1048301) to 1 mg/mL in the media containing the CHO cells. Sodium hydroxide was added to the solution to neutralize the pH and 400 μL of the collagen solution was added to each well of the 24-well plates. For the wells where the antibodies were included in the collagen gel solution, CHO cells were prepared at 2.5×10^6 and the antibodies were prepared at 2× final concentration in ExpiCHO media. The cells and antibodies were then combined 1:1 before the addition of the stock collagen type 1. The gels were allowed to polymerize for 60 minutes at 37° C. Antibodies were added to the ExpiCHO media, which was then layered on top of the polymerized gel (400 μL/well). The gels were incubated for 6 days at 37° C. before gel contraction was quantified. Images of each well were analyzed using Image J and gel contraction was determined as a percentage of the initial gel area.
Selected exemplary antibodies were tested for the ability to inhibit cell-mediated 3D gel contraction because this ability is directly linked to the functionality of the exemplary antibodies.

α11β1 I Domain [3] = molecular target: T1, α11β1 I Domain; experiment: SPR binding to α11β1 I Domain; conditions: in words
Procedure: (§1) The affinity of antibodies for human α11β1 was measured by surface plasmon resonance assay (SPR). Affinity was measured at pH 7.6 and 25° C. with a Biacore T200 instrument. Anti-HIS antibody was immobilized on the SPR sensor surface using EDC/NHS covalent attachment. HIS-tagged human α11β1 was captured on the sensor surface and a single-cycle kinetics assay was used. Increasing concentrations of test antibody were injected in series over the sensor-bound α11β1. Dissociation was monitored for 1000 seconds. A sensor surface with only anti-HIS antibody and a series of blank injections were used to double-reference subtract the data. A 1:1 Langmuir model was fit to the data to estimate the kinetic association and dissociation constants. The affinity (equilibrium dissociation constant) of the interaction was calculated by dividing the kinetic dissociation constant by the kinetic association constant. Between injection cycles α11β1 and bound antibody were removed with an injection of 10 mM glycine at pH 1.5.
(§2) The binding affinity of antibodies for the α11β1 Headpiece and α11β1 I Domain as measured by SPR is shown in FIG. 10A and FIG. 10B, respectively.

[4] = system: human Precision-Cut Kidney Slices (PCKS); experiment: Precision-Cut Kidney Slices (PCKS); type: cell-based; conditions: 72- and 96-hour time points at each dose tested (1, 10 and 50 μg/mL)
Procedure: PCKS were prepared from explanted fibrotic human kidney tissue and rested for 24 hours to allow the post-slicing stress period to elapse before experiments began. PCKS were cultured with TGF-β1 (3 ng/mL) and PDGFββ (50 ng/mL) in the presence or absence of Alk5i (10 μM, positive control), test anti-α11β1 antibodies over three doses (1, 10 and 50 μg/mL) or in the presence of IgG control antibodies at a single high dose. PCKS culture media was harvested every 24 hours for a total of 3 time points. Levels of Collagen type I α1 (col1a1) in the tissue culture supernatants were quantified using R&D Duoset ELISA kits. Statistics were performed using Two-way ANOVA followed by Dunnett's multiple comparisons test.
As described in the methods above, PCKS were prepared from explanted fibrotic human kidney tissue and rested for 24 hours to allow the post-slicing stress period to elapse before experiments began. PCKS were cultured with TGF-β1 (3 ng/ml) and PDGFββ (50 ng/mL) in the presence or absence of Alk5i (10 μM, positive control), test anti-α11β1 antibodies over three doses (1, 10 and 50 μg/mL) or in the presence of IgG control antibodies at a single high dose. PCKS culture media was harvested every 24 hours for a total of 3 time points. Levels of Collagen type I α1 (col1a1) in the tissue culture supernatants were quantified using R&D Duoset ELISA kits. […]

α11β1 Headpiece = experiment: SPR binding to α11β1 Headpiece; design: species or system human; conditions: in words
Procedure: as §1, §2

| Molecule | Cross-reactivity with other collagen receptors (α1β1, α2β1 and/or α10β1) | Binding to the I domain of α11β1 (α11β1 I Domain [1]) | Inhibition of CHO-hu α11-mediated collagen gel contraction [2] | Binding to α11β1 I domain (SPR) (α11β1 I Domain [3]) | Inhibition of col1a1 secretion [4] | Binding to α11β1 headpiece domain (SPR) (α11β1 Headpiece) |
| --- | --- | --- | --- | --- | --- | --- |
| B1 | does cross-react with other collagen receptors | not found to be an I-domain binder |  |  |  |  |
| B2 |  |  | inhibited | do not bind | significant inhibition of col1a1 secretion | do not bind |
